Sequences and labels used below:
B1: SB-9 (antibody, V domains shown)
VH: QVQLVQSGAEVKKPGASVKVSCKASGYTFTSYGIHWVRQAPGQGLEWMGWISAYNGNTNYAQKLQGRVTMTTDTSTSTAYMELRSLRSDDTAVYYCARDGLHYGDYIVYYGMDVWGQGTTVTVSS
VL: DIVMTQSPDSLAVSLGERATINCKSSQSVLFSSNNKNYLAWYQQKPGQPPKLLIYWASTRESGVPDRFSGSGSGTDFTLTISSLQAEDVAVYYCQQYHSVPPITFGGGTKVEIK
notes: IgG
B2: SB-42 (antibody, V domains shown)
VH: QVQLVQSGAEVKKPGASVKVSCKASGYTFTSYGISWVRQAPGQGLEWMGWISAYNGNTNYAQKLQGRVTMTTDTSTSTAYMELRSLRSDDTAVYYCARGPGHYYVAGMDVWGQGTTVTVSS
VL: EIVMTQSPATLSVSPGERATITCRASQSISSYLNWYQQKPGKAPKLLIYSASSLQSGVPSRFSGSGSGTDFTLTISSLQPEDFATYYCQQGDSFPITFGGGTKVEIK
notes: IgG
B3: SB-12 (antibody, V domains shown)
VH: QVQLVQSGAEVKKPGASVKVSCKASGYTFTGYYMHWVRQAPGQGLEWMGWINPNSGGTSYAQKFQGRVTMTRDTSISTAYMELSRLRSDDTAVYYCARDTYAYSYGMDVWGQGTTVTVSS
VL: EIVMTQSPATLSVSPGERATLSCRASQSVSSNLAWYQQKPGQAPRLLIYSASTRATGIPARFSGSGSGTEFTLTISSLQSEDFAVYYCQQLDNLPYTFGGGTKVEIK
notes: IgG
B4: SB-33 (antibody, V domains shown)
VH: EVQLVESGGGLVQPGGSLRLSCAASGFTVSSNYMSWVRQAPGKGLEWVSVIYSGGSTYYADSVKGRFTISRDNSKNTLYLQMNSLRAEDTAVYYCARGQYTGSLDVWGQGTMVTVSS
VL: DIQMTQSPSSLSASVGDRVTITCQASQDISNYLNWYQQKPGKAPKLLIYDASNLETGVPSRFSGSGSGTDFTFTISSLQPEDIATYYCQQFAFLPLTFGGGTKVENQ
notes: IgG
B5: SB-11 (antibody, V domains shown)
VH: QVQLVQSGAEVKKPGSSVKVSCKASGGTFSNYAISWVRQAPGQGLEWMGGIIPIFGTANYAQKFQGRVTITADESTSTAYMELSSLRSEDTAVYYCARPVDSSSYSLGYYYGMDVWGKGTTVTVSS
VL: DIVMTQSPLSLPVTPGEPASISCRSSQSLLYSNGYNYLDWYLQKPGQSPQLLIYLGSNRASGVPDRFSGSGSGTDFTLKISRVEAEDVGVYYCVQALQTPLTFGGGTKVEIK
notes: IgG
B6: SB-37 (antibody, V domains shown)
VH: QVQLVQSGAEVKKPGSSVKVSCKASGGTFSNYAISWVRQAPGQGLEWMGGIIPIFGTANYAQKFQGRVTITADESTSTAYMELSSLRSEDTAVYYCARSRWGASGYYYYMDVWGQGTMVTVSS
VL: EIVLTQSPATLSLSPGERATLSCRASQSVSSYLAWYQQKPGQAPRLLIYDASNRATGIPARFSGSGSGTDFTLTISSLEPEDFAVYYCQQRHTYPLTFGGGTKVEIK
notes: IgG
B7: SB-35 (antibody, V domains shown)
VH: QVQLVQSGAEVKKPGSSVKVSCKASGGTFSSYAISWVRQAPGQGLEWMGGIIPIFGTANYAQKFQGRVTITADESTSTAYMELSSLRSEDTAVYYCARGRPQSESYLLDYWGQGTLVTVSS
VL: not shown
notes: IgG
B8: SB-31 (antibody, V domains shown)
VH: QVQLVQSGAEVKKPGASVKVSCKASGYTFTSYYMHWVRQAPGQGLEWMGIINPGGGSTSYAQKFQGRVTMTRDTSTSTVYMELSSLRSEDTAVYYCAREGLYSSGWYIDVWGQGTLVTVSS
VL: DIQMTQSPSSVSASVGDRVTITCRASQGISSWLAWYQQKPGKAPKLLIYAASSLQSGVPSRFSGSGSGTDFTLTISSLQPEDFATYYCQQAVSHPFTFGGGTKVEIK
notes: IgG
B9: SB-38 (antibody, V domains shown)
VH: QVQLVQSGAEVKKPGASVKVSCKASGYTFTSYYMHWVRQAPGQGLEWMGIINPSGGSTSYAQKFQGRVTMTRDTSTSTVYMELSSLRSEDTAVYYCARESGTDFGTISYWGQGTLVTVSS
VL: B8 VL with H94Y, F96I
notes: IgG

Numbering of substitutions follows the chain as printed.
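For FOB in this document: antibodies tested at 1 µg/ml for 30 min on ice against receptor-expressing cells, detected with a PE-labelled secondary antibody, read as mean fluorescence intensity relative to background.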

T5 sequence (O00241 30-398): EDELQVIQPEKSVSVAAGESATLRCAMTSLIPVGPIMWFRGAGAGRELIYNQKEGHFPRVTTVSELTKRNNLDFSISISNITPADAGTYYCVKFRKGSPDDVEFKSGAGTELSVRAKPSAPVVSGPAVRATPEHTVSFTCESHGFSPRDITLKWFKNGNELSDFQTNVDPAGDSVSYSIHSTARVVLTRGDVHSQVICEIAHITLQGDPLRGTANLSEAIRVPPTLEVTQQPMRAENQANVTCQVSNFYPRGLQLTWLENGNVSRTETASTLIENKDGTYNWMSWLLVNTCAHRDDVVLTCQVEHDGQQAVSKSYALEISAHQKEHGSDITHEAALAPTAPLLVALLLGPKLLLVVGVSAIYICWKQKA

In the first assay the target is T1, human SIRPβ1 domain 1 (D1) Fc fusion (human, UniProt O00241 30-148).
T1 construct: Made in HEK293/T cells with a heterologous signal peptide; also called Human SIRPβ1 D1-Fc; Human SIRPβ1-Fc; not shown: C-terminal human IgG1 Fc
T1 sequence (O00241 30-148 limits assumed): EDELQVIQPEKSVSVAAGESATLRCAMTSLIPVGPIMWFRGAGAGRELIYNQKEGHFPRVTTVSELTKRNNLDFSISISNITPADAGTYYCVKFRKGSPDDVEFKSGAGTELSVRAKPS
The experiment in a line: Octet, IgG avid. On the technique in general: Biolayer interferometry detects binding as a change in optical thickness at a sensor tip.
As usually defined, the Kd is the free concentration of one partner at which half of the binding sites on the other are occupied at equilibrium, for simple one-to-one binding. High values mean weaker binding, low ones tighter binding. Turning to B1, the affinity, expressed as Kd, was 3.66 nM.
Take B2: the Kd came to 12.3 nM.
In the case of B3, binding was characterised by a dissociation constant (Kd) of 4.94 nM.
Consider B4, for which binding was characterised by a dissociation constant (Kd) of 9.23 nM.
Turning to B5, the affinity, expressed as Kd, was 3.69 nM. This Kd lies about 2.5-fold lower than the previous one.
B6 registered a Kd of 7.5 nM.
Still for that read-out and setting: the figure for B7 is 7.47 nM.
As for B8, the affinity, expressed as Kd, was 3.75 nM.
Turning to B9, binding was characterised by a dissociation constant (Kd) of 7.33 nM. This Kd is about 2-fold higher than that of the molecule before.

For a further assay, the target named is T2, human SIRPα on cells (human, UniProt P78324 31-504).
T2 construct: Whole entry
The experiment in a line: flow cytometry.
On to B1, for which the binding result is on record as “no binding (tested: 1 ug/ml)”.
In the case of B2, the binding result is given as “no binding (tested: 1 ug/ml)”.
Turning to B3, the binding result is recorded as “no binding (tested: 1 ug/ml)”.
With B4, the binding result was “no binding (tested: 1 ug/ml)”.
With B5, the binding result was “no binding (tested: 1 ug/ml)”.
Consider B6, for which the binding result is “no binding (tested: 1 ug/ml)”.
Regarding B7, the binding result was “no binding (tested: 1 ug/ml)”.
Turning to B8, the binding result is recorded as “no binding (tested: 1 ug/ml)”.
Turning to B9, the binding result is “no binding (tested: 1 ug/ml)”.

The target in the next assay is T3, mouse SIRPβ1 on CHO cells (mouse).
T3 construct: Whole entry
T3 chain: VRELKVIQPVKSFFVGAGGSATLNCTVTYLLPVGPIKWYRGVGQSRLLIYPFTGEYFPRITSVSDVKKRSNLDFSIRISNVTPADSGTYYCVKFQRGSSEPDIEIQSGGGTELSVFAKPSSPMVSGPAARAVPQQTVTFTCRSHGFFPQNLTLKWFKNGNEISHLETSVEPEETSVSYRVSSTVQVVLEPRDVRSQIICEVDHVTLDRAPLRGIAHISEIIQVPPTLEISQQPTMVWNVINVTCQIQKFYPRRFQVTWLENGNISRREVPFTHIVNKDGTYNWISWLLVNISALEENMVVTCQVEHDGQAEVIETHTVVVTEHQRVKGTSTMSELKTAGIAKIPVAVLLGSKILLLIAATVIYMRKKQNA
The experiment in a line: flow cytometry.
On to B1, for which the binding result is “no binding (tested: 1 ug/ml)”.
For the molecule B2, the binding result was “no binding (tested: 1 ug/ml)”.
Turning to B3, the binding result was “no binding (tested: 1 ug/ml)”.
In the case of B4, the binding result is given as “no binding (tested: 1 ug/ml)”.
Same read-out and setting: the entry for B5 is “no binding (tested: 1 ug/ml)”; for B6 it is “no binding (tested: 1 ug/ml)”.
In the case of B7, the binding result was “no binding (tested: 1 ug/ml)”.
As to B8, the binding result was “no binding (tested: 1 ug/ml)”.
For the molecule B9, the binding result is on record as “no binding (tested: 1 ug/ml)”.

In another assay the target is T4, mouse SIRPα on cells (mouse, UniProt P97797 32-513).
T4 construct: whole, on cells
T4 sequence (looked up): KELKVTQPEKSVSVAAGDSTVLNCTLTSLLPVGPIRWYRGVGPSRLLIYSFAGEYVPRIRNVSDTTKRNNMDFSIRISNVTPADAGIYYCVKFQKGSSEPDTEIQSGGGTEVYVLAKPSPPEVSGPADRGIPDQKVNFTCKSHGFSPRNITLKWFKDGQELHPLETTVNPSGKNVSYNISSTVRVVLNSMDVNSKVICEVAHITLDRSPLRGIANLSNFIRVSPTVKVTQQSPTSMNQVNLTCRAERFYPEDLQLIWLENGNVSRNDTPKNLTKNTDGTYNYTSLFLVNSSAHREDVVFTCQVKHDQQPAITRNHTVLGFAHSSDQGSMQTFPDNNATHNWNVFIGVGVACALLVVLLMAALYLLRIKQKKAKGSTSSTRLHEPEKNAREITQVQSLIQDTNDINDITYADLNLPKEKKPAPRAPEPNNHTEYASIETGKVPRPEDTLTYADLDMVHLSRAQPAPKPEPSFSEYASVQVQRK
The assay is described as follows: flow cytometry. (In general: Flow cytometry measures light scatter and fluorescence of single cells or particles in a stream.)
For the molecule B1, the binding result was “no binding (tested: 1 ug/ml)”.
The same measure, in the same setting: the entry for B2 is “no binding (tested: 1 ug/ml)”; for B3 it is “no binding (tested: 1 ug/ml)”; for B4 it is “no binding (tested: 1 ug/ml)”.
With B5, the binding result is reported as “no binding (tested: 1 ug/ml)”.
In the case of B6, the binding result was “no binding (tested: 1 ug/ml)”.
Take B7: the binding result is on record as “no binding (tested: 1 ug/ml)”.
Still for that read-out and setting: the entry for B8 is “no binding (tested: 1 ug/ml)”; for B9 it is “no binding (tested: 1 ug/ml)”.

The next assay addresses T5, human SIRPβ1 isoform 1 on cells (human, UniProt O00241 30-398).
T5 construct: On CHO cells (low level), on BWZ/BW5147.G.1.4 cells (reporter cells co-express human DAP12) or on primary human myeloid cells; also called huSIRPβ1; BWZ-huSIRPβ1
The experiment in a line: flow cytometry.
Experimental: (§1) Initial characterization of anti-SIRPβ1 antibodies involved determining their ability to bind cell lines expressing human or mouse SIRPβ1. Cells were harvested, plated at 10⁶/ml in a 96-well plate, washed, and incubated in 100 μl FACS buffer containing 1 μg/ml anti-SIRPβ1 antibody for 0.5 hour on ice. Cells were then washed twice and incubated in 100 μl FACS buffer containing 0.5 μg/ml PE-conjugated secondary antibody for 30 minutes on ice. Cells were washed twice in cold FACS buffer and acquired on a BD FACS Canto. Data analysis and calculation of mean fluorescence intensity (MFI) values or 00 positive cells was performed with FlowJo (TreeStar) software version 10.0.7.
(§2) As a negative control, the anti-SIRPβ1 antibodies were also screened for surface binding to CHO cells overexpressing recombinant mouse SIRPβ31. […] Given the high sequence similarity between receptors of the SIRPβ family, anti-SIRPβ1 antibodies were also screened for cross-reactivity to human and mouse SIRPα.
With B1, the FOB came to 1.8 fold over background.
The molecule B2 had an FOB of 3.3 fold over background.
The molecule B3 had an FOB of 1.6 fold over background.
B4 displayed an FOB of 1.4 fold over background.
Same read-out and setting: the figure for B5 is 6.3 fold over background; for B6 it is 3.8 fold over background; for B7 it is 2.1 fold over background.
The same measure, in the same setting: next, B8: 3.1 fold over background.
Same read-out and setting: next, B9: 1.5 fold over background.

Another assay addresses T2, human SIRPα on cells. The assay is described as follows: flow cytometry. The source holds these as a separate data set.
Experimental: as §1, §2
Turning to B1, the FOB came to 2.1 fold over background.
B2 returned an FOB of 2.7 fold over background.
On the same count and under the same terms, next, B3: 2 fold over background; B4: 2.2 fold over background; B5: 2.3 fold over background.
In turn, B6 registered an FOB of 2.2 fold over background.
The same measure, in the same setting: the figure for B7 is 2.6 fold over background.
The same measure, in the same setting: next, B8: 1.8 fold over background; B9: 2.1 fold over background.

The next assay has as its target T3, mouse SIRPβ1 on CHO cells. The experiment in a line: flow cytometry. The source holds these as a separate data set.
Experimental: as §1, §2
For the molecule B1, the FOB was found to be 1 fold over background.
B2 registered an FOB of 1.2 fold over background.
As to B3, the FOB came out at 1.3 fold over background.
Regarding B4, the FOB worked out at 1.3 fold over background.
In turn, B5 gave an FOB of 1.2 fold over background.
In turn, B6 yielded an FOB of 1.2 fold over background.
Regarding B7, the FOB turned out to be 1.1 fold over background.
Turning to B8, the FOB came to 1.4 fold over background.
The molecule B9 had an FOB of 1.3 fold over background.

For a further assay, the target named is T4, mouse SIRPα on cells. The experiment in a line: flow cytometry. This is another data set of the same source.
Experimental: as §1, §2
B1 had an FOB of 0.8 fold over background.
In turn, B2 had an FOB of 1.2 fold over background.
Molecule B3 showed an FOB of 1.2 fold over background.
As to B4, the FOB came to 1.4 fold over background.
In turn, B5 displayed an FOB of 0.9 fold over background.
As to B6, the FOB stood at 1 fold over background.
The molecule B7 had an FOB of 1 fold over background.
The same measure, in the same setting: the figure for B8 is 1 fold over background; for B9 it is 1.1 fold over background.

A further assay addresses T6, human SIRPα domain 1 (D1) Fc fusion (human, UniProt P78324 32-149).
T6 construct: also called human SIRPα D1-Fc; Human SIRPα Fc; not shown: C-terminal human IgG1 Fc
The experiment in a line: Octet.
For the molecule B1, the binding result is recorded as “no binding (tested: 100 nM)”.
On the same count and under the same terms, next, B2: “no binding (tested: 100 nM)”; B3: “no binding (tested: 100 nM)”; B4: “no binding (tested: 100 nM)”.
With B5, the binding result is “no binding (tested: 100 nM)”.
For the molecule B6, the binding result was “no binding (tested: 100 nM)”.
As to B7, the binding result is “no binding (tested: 100 nM)”.
As for B8, the binding result was “no binding (tested: 100 nM)”.
For the molecule B9, the binding result is given as “no binding (tested: 100 nM)”.

A further assay has as its target T7, mouse SIRPα D1-Fc (mouse, UniProt P97797 32-150, limits assumed).
T7 construct: domain: D1
T7 sequence (looked up): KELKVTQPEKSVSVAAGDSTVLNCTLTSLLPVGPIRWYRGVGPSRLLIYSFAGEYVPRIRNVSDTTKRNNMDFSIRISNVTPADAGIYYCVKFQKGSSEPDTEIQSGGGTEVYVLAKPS
The experiment in a line: Octet.
Experimental: Briefly, Octet affinity measurements were performed by loading IgGs on-line onto AHQ sensors. Sensors were equilibrated off-line in assay buffer for 30 min and then monitored on-line for 60 seconds for baseline establishment. For avid binding measurement, sensors with loaded IgGs were exposed to 100 nM antigen (human SIRPα domain 1 (D1) Fc fusion or SIRPβ1 domain 1 (D1) Fc fusion) for 3 min, and then transferred to assay buffer for 3 min for off-rate measurement. Additional avid binding was determined by loading biotinylated SIRPβ1 monomer on SA sensors and exposing to 100 nM IgG in solution. Monovalent binding measurements were obtained by loading human SIRPα- or SIRPβ1-Fc fusion antigens onto AHQ sensor, followed by exposure to 100 nM anti-SIRPβ1 antibody Fab. Additional monovalent measurements were made by loading biotinylated human SIRPα or SIRPβ1 monomer to SA sensor followed by exposure to 100 nM Fab in solution. Kinetics data were fit using a 1:1 binding model in the data analysis software provided by ForteBio (ForteBio Data Analysis Software 7.0).
B1: the binding result is “no binding (tested: 100 nM)”.
Still for that read-out and setting: the entry for B2 is “no binding (tested: 100 nM)”; for B3 it is “no binding (tested: 100 nM)”; for B4 it is “no binding (tested: 100 nM)”.
As to B5, the binding result was “no binding (tested: 100 nM)”.
Take B6: the binding result was “no binding (tested: 100 nM)”.
Regarding B7, the binding result was “no binding (tested: 100 nM)”.
As for B8, the binding result was “no binding (tested: 100 nM)”.
In the case of B9, the binding result was “no binding (tested: 100 nM)”.

For the origin of these results see US20250026827A1 (Alector, published 2025).
